# Results taken from patent publication US20030104981A1, “Human insulin analogues” (priority 1995, published 2003).
# Columns and labels:
# [1] = biological target: insulin-degrading enzyme (IDE); experiment: cell-based or functional assay
# [2] = biological target: insulin receptor in the LB lymphoma cell; experiment: competition with native insulin for insulin receptors on LB lymphoma cells
# Chain of insulin receptor in the LB lymphoma cell (P15208 28-748, chain 1 of 2): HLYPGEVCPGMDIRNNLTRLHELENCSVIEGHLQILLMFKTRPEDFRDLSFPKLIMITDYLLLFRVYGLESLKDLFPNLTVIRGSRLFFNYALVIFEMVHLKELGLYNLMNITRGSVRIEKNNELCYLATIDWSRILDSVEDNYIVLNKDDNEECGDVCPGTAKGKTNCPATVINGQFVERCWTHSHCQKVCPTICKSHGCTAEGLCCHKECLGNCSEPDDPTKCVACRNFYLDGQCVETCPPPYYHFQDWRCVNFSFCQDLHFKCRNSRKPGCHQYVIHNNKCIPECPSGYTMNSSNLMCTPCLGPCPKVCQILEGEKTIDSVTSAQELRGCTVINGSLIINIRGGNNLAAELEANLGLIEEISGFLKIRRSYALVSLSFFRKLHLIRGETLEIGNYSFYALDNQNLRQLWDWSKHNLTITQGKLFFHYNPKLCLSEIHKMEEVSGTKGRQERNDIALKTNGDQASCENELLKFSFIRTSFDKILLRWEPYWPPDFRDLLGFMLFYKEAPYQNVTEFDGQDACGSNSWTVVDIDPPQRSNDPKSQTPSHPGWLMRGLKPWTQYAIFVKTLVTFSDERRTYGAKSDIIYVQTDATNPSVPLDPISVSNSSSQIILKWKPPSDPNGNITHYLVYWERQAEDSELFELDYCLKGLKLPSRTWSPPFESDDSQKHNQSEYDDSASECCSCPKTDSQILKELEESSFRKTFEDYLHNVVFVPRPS
# Chain of insulin receptor in the LB lymphoma cell (P15208 753-1372, chain 2 of 2): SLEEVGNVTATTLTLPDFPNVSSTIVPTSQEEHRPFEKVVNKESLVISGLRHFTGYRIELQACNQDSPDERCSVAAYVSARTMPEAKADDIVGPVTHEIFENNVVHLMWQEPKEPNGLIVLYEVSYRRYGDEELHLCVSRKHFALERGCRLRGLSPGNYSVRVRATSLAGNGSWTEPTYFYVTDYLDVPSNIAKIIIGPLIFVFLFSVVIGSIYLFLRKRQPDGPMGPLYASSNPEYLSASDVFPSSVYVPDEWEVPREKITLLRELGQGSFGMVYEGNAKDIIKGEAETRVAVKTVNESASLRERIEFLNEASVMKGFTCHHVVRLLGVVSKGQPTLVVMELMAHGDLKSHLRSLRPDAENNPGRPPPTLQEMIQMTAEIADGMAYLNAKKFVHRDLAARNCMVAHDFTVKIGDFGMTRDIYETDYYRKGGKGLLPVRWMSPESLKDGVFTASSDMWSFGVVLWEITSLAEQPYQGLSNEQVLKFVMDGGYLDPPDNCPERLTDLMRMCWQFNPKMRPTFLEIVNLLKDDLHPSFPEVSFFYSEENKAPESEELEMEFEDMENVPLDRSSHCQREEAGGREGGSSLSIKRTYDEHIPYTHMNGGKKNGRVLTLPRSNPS
"TCA assay analysis of degradation, 10 minutes incubation [1]","TCA assay analysis of degradation, 20 minutes incubation [1]","TCA solubility after 15 minutes of incubation, IDE dilution 1:30 [1]",binding affinity as percent of native insulin [2],times less binding affinity than native insulin [2],stability from insulin-degrading enzyme against ^125I A14 porcine insulin (TCA precipitation or HPLC assay) [1],Substance
25.9%,66.8%,22.5%,,,,^125I A14 mono-iodo porcine insulin (from UniProt P01315 25-54) (ligand)
,,,20%,5 times,,des-(B26-B30)-[Glu-B10; Ser-B17; Tyr-B25-NH2] Radoyka I human insulin analogue (ligand)
,,,10%,10 times,4.5 times,des-(B26-B30)-[Glu-B10; Thr-B14; Ser-B17; Tyr-B25-NH2] Radoyka II human insulin analogue (ligand)
